In US20230051701A1 (Bristol-Myers Squibb, published 2023):
Values joined by “and” are separate entries in the source; they are usually repeats but may differ in a detail not shown here. Equal entries are not always repeated.

T1: rhCD73 bound to his-tag magnet beads (human, UniProt P21589 27-549, limits assumed)
T1 sequence: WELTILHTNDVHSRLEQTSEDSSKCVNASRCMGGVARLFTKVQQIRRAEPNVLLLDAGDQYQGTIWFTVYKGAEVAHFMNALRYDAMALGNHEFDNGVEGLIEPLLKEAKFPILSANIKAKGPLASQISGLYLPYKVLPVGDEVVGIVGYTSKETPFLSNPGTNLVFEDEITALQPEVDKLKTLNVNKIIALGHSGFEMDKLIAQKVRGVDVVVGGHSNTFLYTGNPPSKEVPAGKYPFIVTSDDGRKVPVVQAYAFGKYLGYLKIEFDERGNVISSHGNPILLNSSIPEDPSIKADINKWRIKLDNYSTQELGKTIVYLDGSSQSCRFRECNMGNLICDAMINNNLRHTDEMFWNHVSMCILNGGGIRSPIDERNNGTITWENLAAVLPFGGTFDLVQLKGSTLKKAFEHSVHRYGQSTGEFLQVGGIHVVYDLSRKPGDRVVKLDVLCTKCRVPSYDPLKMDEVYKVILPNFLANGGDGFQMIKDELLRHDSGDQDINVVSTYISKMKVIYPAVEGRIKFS

T2: N-terminal domain of hCD73 (residues 26-336 of human CD73), His-tagged (human, UniProt P21589 26-336)
T2 construct: also called N-hCD73; N-hCD73-his
T2 sequence: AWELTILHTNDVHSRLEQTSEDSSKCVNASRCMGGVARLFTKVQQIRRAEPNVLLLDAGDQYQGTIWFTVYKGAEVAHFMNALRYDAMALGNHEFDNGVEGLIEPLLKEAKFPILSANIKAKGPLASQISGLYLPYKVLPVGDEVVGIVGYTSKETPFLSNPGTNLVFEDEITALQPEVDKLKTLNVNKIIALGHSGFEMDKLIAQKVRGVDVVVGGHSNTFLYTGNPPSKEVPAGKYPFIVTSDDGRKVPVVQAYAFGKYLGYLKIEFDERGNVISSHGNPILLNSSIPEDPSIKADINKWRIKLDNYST

T3: human CD73 on cells (Calu6, NCI-H292, SK-MEL-24, human tumor cell lines, human B and T cells) (human, UniProt P21589 27-549)
T3 construct: Endogenous protein; also called endogenous CD73; cellular CD73
T3 sequence: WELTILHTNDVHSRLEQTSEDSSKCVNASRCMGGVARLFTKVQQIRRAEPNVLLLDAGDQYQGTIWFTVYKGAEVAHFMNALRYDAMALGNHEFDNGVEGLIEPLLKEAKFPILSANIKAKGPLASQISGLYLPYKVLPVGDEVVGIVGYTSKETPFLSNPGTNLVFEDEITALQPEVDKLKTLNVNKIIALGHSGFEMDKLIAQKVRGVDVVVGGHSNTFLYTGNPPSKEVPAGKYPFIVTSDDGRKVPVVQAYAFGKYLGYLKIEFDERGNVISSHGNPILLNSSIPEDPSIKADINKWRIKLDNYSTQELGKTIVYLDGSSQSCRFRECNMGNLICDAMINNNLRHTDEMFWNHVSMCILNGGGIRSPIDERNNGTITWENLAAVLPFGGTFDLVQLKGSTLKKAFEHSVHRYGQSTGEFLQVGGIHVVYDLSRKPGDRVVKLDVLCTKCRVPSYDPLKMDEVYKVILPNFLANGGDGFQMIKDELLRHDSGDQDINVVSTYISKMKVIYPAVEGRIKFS


Key:
[1] = biological target: T1, rhCD73 bound to his-tag magnet beads; test: cell-based or functional assay
[2] = biological target: T2, N-terminal domain of hCD73 (residues …); test: SPR, mAb captured on protein A
Protocol: For these experiments, protein A (Pierce) was immobilized to a density of 3000 — 4000 RU on flow cells 1-4 of a CM5 sensor chip (GE Healthcare) using standard ethyl(dimethylaminopropyl) carbodiimide (EDC)/N-hydroxysuccinimide (NHS) chemistry, with ethanolamine blocking, in a running buffer of 0.01 M HEPES pH 7.4, 0.15 M NaCl, 3 mM EDTA, 0.005% v/v tween 20. […] The running buffer for the kinetic experiments was 10 mM sodium phosphate, 130 mM sodium chloride, 0.05% tween 20, pH 7.1. The surfaces were regenerated after each cycle using two 30 s pulses of 10 mM glycine pH 1.5 at a flow rate of 30 μl/min. Sensogram data was double-referenced and then fitted to a 1:1 Langmuir model using Biacore T100 evaluation software v2.0.4, to determine the association rate constant (ka), the dissociation rate constant (kd), and the equilibrium dissociation constant (KD).

[3] = biological target: T3, human CD73 on cells (Calu6, NCI-H292, …); test: binding titration on Calu6 cells, average of 2-6 experiments
Protocol: Titration binding curves were produced with CD73 antibodies on Calu6 (CD73 endogenous expressors; human pulmonary adenocarcinoma cell line), DMS114 (CD73 negative; human small cell lung cancer cell line), CHO-cynoCD73 (cynoCD73-transfected) and CHO-K1 (cynoCD73 negative), cells using Alexa Fluor® 647 Goat Anti-Human IgG (H+L) as a secondary antibody, Invitrogen Cat#A-21445, using the following method: 100000 cells were plated in 100 uL PBS+2% FBS per well and blocked for 20 min. Using a U-bottom 96-deep well plate, volumes of antibody and PBS+2% FBS were combined as dictated by Table 12 below.
An 8-point serial dilution was performed by diluting a sixth of the volume (90 uL) into 450 μL PBS+2% FBS. The cell plate was spun down for 5 minutes at 1500 rpm. 100 uL of diluted antibody was added per well of the plate. 100 uL PBS+2% FBS were added to all other wells. […] The plates were spun down at 1500 rpm for 5 min and washed in 200 uL PBS +2% FBS per well. The plates were washed again, resuspended in 200 uL 2% FBS in PBS per well and the samples were run.

[4] = biological target: T3, human CD73 on cells (Calu6, NCI-H292, …); test: cell-based or functional assay
[5] = biological target: T3, human CD73 on cells (Calu6, NCI-H292, …); test: cell-based or functional assay; remark: listed apart in the source
[6] = biological target: T3, human CD73 on cells (Calu6, NCI-H292, …); test: cell-based or functional assay; remark: listed apart in the source

Row | Binder | EC50 (nM), inhibition of bead-bound rhCD73 enzymatic activity [1] [nM] | Kd [2] | koff [2] | kon [2] | EC50 [3] [nM] | EC50 (nM), CD73 internalization, Calu6, 2 h [4] [nM] | Ymax, CD73 internalization, Calu6, 2 h [4] | IC50 (nM), cAMP HTRF assay, Calu-6 with HEK293/A2AR cells [5] [nM] | Ymax, cAMP HTRF assay [5] | EC50 Calu6 inhibition [6] [nM] | EC50 H292 inhibition [6] [nM] | EC50 SKMEL24 inhibition [6] [nM]
1 | 4D4 (antibody, human IgG2, kappa, IgG2 from hybridoma; also called 4D4-1) heavy: QVQLVESGGGVVQPGRSLRLSCAASGFTFSNYGMHWVRQAPGKGLEWVAVIWYDESNKYYADSVKGRFTISRDNSKNTLFLQMNSLRAEDTAVYYCARGYNSRWYPDAFDIWGQGTMVTVSSASTKGPSVFPLAPCSRSTSESTAALGCLVKDYFPEPVTVSWNSGALTSGVHTFPAVLQSSGLYSLSSVVTVPSSNFGTQTYTCNVDHKPSNTKVDKTVERKCCVECPPCPAPPVAGPSVFLFPPKPKDTLMISRTPEVTCVVVDVSHEDPEVQFNWYVDGVEVHNAKTKPREEQFNSTFRVVSVLTVVHQDWLNGKEYKCKVSNKGLPAPIEKTISKTKGQPREPQVYTLPPSREEMTKNQVSLTCLVKGFYPSDIAVEWESNGQPENNYKTTPPMLDSDGSFFLYSKLTVDKSRWQQGNVFSCSVMHEALHNHYTQKSLSLSPGK light: not shown | 5.31 | 9.4 nM and 6.2 nM | 0.00077 s⁻¹ and 0.00049 s⁻¹ | 82000 M⁻¹ s⁻¹ and 79000 M⁻¹ s⁻¹ | 0.82 | 0.38 | 104 % of 100 nM 11F11 |  |  |  |  | 
2 | 7A11 (antibody, human IgG1, kappa, V domains shown, IgG1za from hybridoma; also called 7A11-1) VH: EVQLVESGGGLVQTGRSLRLSCAASGFTFDDYAMHWVRQAPGKGLEWVSDISWNSDIIGYADSVKGRFTISRDNAKNSLYLQMNSLRAEDTALYYCAKDIYGSGSSFFDYWGQGILVTVSS VL: DIQMTQSPSSLSASVGDRVTITCRASQYISSWLAWYQQKPEKAPKSLIYAASSLQSGVPSRFSGSGSGTDFTLTISSLQPEDFATYYCQQYHSYPPTFGQGTRLEIKR | 2.86 | 0.43 nM | 0.00038 s⁻¹ | 880000 M⁻¹ s⁻¹ | 0.35 | 2.59 | 50 % of 100 nM 11F11 | 0.95 | 45 % of 100 nM 11F11 | 0.95 | 1.31 | 3.72
3 | 11A6 (antibody, human IgG1, kappa, V domains shown, IgG1za from hybridoma; also called 11A6-1) VH: EVQLVESGGNLVQPGRSLRLSCAASGFTFDDYAMHWVRQAPGKGLEWVSGISWNNNDIGYADSVKGRFIISRDNAKNSLYLQMNSLRPEDTALYYCVKGYYVILTGLDYWGQGTPVTVSS VL: DIQMTQSPSSLSASVGDRVTITCRASQGISSWLAWYQQKPEKAPKSLIYAASSLQSGVPSRFSGSGSGTDFTLTISSLQPEDFATYYCQQYNSYPLTFGGGTKVEIKR | 3.12 | 140 nM | 0.0076 s⁻¹ | 55000 M⁻¹ s⁻¹ | 1.93 |  |  | 4.87 | 84 % of 100 nM 11F11 | 2.21 |  | 
4 | 5F8 (antibody, human IgG1, kappa, V domains shown, IgG1za from hybridoma; predominant light chain VK1, VK2 also expressed; also called 5F8-1) VH: EVQLVESGGGLVQPGGSLRLSCAASGFTFSSYWMHWVRQAPGKGLVWVSRIISDGSSTGYADSVKGRFTISRDNAKNTLYLQMNSLRAEDTAVYYCAREFSSGWYFDYWGQGTLVTVSS VL: AIQLTQSPSSLSASVGDRVTITCRASQGISSALAWYQQKPGKAPKLLIYDASSLESGVPSRFSGSGSGTDFTLTISSLQPEDFATYYCQQFSSYPRTFGQGTKVEIKR | 5.76 | 41 nM | 0.006 s⁻¹ | 150000 M⁻¹ s⁻¹ | 11.7 |  |  | 13.2 | 80 % of 100 nM 11F11 | 8.1 | 13.5 | 110
